Data: publication PMC11330527, “Structure and dimerization properties of the plant-specific copper chaperone CCH” (Scientific Reports, 2024)

B1: CCHΔ, truncation mutant of CCH lacking the C-terminal extension (domain or fragment, Arabidopsis thaliana, UniProt O82089 1-70, looked up)
chain: MAQTVVLKVGMSCQGCVGAVNRVLGKMEGVESFDIDIKEQKVTVKGNVEPEAVFQTVSKTGKKTSYWPVE
modifications: also: Alexa Fluor 488 NHS ester on amines (labeled copy only)
notes: Used copper-free (apo) or preloaded with Cu(I) from Cu(I)-(BCA)2; A TEV site follows the His-tag; source: E. coli, purified (IMAC, TEV digestion, SEC); not shown: 10xHis, N-terminal, cleaved
B2: copper chaperone CCH (full-length CCH) from Arabidopsis (natural protein, Arabidopsis thaliana, UniProt O82089 1-120, looked up)
chain: MAQTVVLKVGMSCQGCVGAVNRVLGKMEGVESFDIDIKEQKVTVKGNVEPEAVFQTVSKTGKKTSYWPVEAEAEPKAEADPKVETVTETKTEAETKTEAKVDAKADVEPKAAEAETKPSQ
modifications: Alexa Fluor 488 NHS ester on amines (only the labeled copy in MST)
notes: Used copper-free (apo) or preloaded with Cu(I) from Cu(I)-(BCA)2; A TEV site follows the His-tag; Vector pETEV16b-CCH; also called apo-CCH; Cu(I)-CCH; source: E. coli, purified (IMAC, TEV digestion, SEC); not shown: 10xHis, N-terminal, cleaved

Columns and labels:
[1] = molecular target: the molecule itself; assay: MST; only one copy preloaded with copper (CCH: labeled copy copper-loaded, unlabeled copper-free; CCHΔ: unlabeled copy copper-loaded, labeled copper-free); labeled chaperone 20 nM, unlabeled 0.4 to 6.25 µM; 300 mM NaCl, 50 mM HEPES, 0.05% Tween-20, pH 7.5; room temperature; one-site binding model; apparent KD; dimer to monomers
[2] = molecular target: the molecule itself; assay: MST; both copies in the apo (copper-free) state; Alexa Fluor 488-labeled chaperone 20 nM, unlabeled chaperone 4.6 to 400 nM; 300 mM NaCl, 50 mM HEPES, 0.05% Tween-20, pH 7.5, no DTT; room temperature; one-site binding model; apparent KD; dimer to monomers

Protein | Kd [1] | Kd [2]
B1 | 169 ± 51 nM | 57 ± 9 nM
B2 | 78 ± 39 nM | 18 ± 6 nM
